# Measured values as given in patent US20250289897A1 (Eli Lilly, published 2025).
# T1: canine LEPR-ECD-His (canine)
# T1 chain: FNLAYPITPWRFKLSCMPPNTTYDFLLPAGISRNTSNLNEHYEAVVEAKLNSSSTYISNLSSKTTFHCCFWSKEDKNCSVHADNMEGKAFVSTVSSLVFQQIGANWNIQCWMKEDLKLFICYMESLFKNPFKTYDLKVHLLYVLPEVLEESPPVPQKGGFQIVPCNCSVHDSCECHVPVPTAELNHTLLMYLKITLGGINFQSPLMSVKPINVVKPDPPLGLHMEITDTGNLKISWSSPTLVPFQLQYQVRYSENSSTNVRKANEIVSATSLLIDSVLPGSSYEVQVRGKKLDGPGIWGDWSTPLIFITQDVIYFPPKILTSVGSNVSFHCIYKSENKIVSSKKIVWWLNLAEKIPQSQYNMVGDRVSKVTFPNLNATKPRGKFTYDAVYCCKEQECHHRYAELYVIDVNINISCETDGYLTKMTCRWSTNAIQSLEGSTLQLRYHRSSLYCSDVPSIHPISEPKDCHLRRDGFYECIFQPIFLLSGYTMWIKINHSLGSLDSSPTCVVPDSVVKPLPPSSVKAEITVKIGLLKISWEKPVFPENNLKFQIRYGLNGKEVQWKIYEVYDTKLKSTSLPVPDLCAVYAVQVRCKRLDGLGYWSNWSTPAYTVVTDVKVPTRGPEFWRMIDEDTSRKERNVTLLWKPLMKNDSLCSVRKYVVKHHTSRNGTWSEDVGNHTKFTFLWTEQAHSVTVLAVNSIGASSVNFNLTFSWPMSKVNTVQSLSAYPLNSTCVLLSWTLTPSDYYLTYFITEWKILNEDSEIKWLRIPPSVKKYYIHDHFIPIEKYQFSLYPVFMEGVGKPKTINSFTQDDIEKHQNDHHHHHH
# T2: human LEPR-ECD-His (human, UniProt P48357 22-839)
# T2 sequence: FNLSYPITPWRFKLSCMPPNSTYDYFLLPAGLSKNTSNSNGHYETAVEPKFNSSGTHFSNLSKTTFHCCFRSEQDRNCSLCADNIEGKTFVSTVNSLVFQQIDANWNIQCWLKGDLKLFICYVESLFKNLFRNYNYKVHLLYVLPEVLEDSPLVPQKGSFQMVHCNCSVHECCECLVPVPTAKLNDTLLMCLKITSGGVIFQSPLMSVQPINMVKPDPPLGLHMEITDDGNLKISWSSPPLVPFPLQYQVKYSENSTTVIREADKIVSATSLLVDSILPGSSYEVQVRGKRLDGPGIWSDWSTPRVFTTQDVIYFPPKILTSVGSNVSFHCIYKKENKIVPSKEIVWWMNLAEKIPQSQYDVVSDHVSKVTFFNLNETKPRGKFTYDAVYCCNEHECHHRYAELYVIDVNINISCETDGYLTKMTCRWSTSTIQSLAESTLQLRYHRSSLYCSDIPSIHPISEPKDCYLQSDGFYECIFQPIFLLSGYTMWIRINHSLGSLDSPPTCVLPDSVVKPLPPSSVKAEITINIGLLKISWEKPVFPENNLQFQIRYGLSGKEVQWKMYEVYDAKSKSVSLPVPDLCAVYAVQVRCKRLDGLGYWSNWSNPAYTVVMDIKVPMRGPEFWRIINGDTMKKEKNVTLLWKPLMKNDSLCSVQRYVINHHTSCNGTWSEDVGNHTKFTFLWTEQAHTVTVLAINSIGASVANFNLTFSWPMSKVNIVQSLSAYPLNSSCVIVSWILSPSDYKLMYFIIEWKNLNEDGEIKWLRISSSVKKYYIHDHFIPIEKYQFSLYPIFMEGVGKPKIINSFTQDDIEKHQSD
# How the values were obtained:
# canine LEPR-ECD-His = target: T1, canine LEPR-ECD-His; assay: SPR (Biacore T200), antibody captured on Protein A/G chip, His-tagged LEPR-ECD as analyte, 1:1 fit; mean n=3, SD 2.4E-8
# [1] = target: T3, neonatal Fc receptor (FcRn) on FcRn Affinity Column Gen2 (Roche, Cat #09430857001) (UniProt P55899 24-297; P61769 21-119, limits assumed); assay: FcRn-HPLC (Roche FcRn Affinity Column Gen2), pH gradient 5.5 to 8.8 over 90 minutes
# human LEPR-ECD-His = target: T2, human LEPR-ECD-His; assay: SPR (Biacore T200), antibody captured on Protein A/G chip, His-tagged LEPR-ECD as analyte, 1:1 fit; mean n=3, SD 2.2E-9
# [2] = target: T3, neonatal Fc receptor (FcRn) on FcRn …; assay: FcRn-HPLC (Roche FcRn Affinity Column Gen2), peak width at 50% peak height
# [3] = target: T4, cynomolgus monkey LEPR, full length, on HEK293-STAT3Luc-cmLepR2 cells (Macaca fascicularis); assay: flow cytometry on live HEK293-STAT3Luc-cmLepR2 cells, AF647 anti-human IgG; average of 4 runs, SD 0.7
# T4 construct: whole, on cells; also called cyno-LEPR; Macaca fascicularis LEPR
# [4] = target: T4, cynomolgus monkey LEPR, full length, on …; assay: flow cytometry on live HEK293-STAT3Luc-cmLepR2 cells, AF647 anti-human IgG; average of 4 runs, SD 1.0
# [5] = target: T4, cynomolgus monkey LEPR, full length, on …; assay: flow cytometry on live HEK293-STAT3Luc-cmLepR2 cells, AF647 anti-human IgG; average of 4 runs, SD 0.6
binder,measurement,setting,value
"Antibody A (antibody, human IgG1, kappa, L234A L235A, IgG1 mAb) heavy: EVQLLESGGGLVQPGGSLRLSCAASGFTFSSFAMSWVRQAPGKGLEWVSAISGSGGSTYSADSVRGRFTISRDNSKNTLYLQMNSLRAEDTAVYYCAKDQGDWDFLFDYWGQGTLVTVSSASTKGPSVFPLAPSSKSTSGGTAALGCLVKDYFPEPVTVSWNSGALTSGVHTFPAVLQSSGLYSLSSVVTVPSSSLGTQTYICNVNHKPSNTKVDKRVEPKSCDKTHTCPPCPAPEAAGGPSVFLFPPKPKDTLYITREPEVTCVVVSVSHEDPEVKFNWYVDGVEVHNAKTKPREEQYNSTYRVVSVLTVLHQDWLNGKEYKCKVSNKALPAPIEKTISKAKGQPREPQVYTLPPSREEMTKNQVSLTCLVKGFYPSDIAVEWESNGQPENNYKTTPPVLDSDGSFFLYSKLTVDKSRWQQGNVFSCSVMHEALHNHYTQKSLSLSPGK light: DIQMTQSPSFLSASVGDRVTITCRASQGISSSLAWYQQKPGKAPKLLIYTASTLQSGVPSRFSGSGSGTEFTLTISSLQPEDFATYYCQQLIYYPFTFGQGTKVEIKRTVAAPSVFIFPPSDEQLKSGTASVVCLLNNFYPREAKVQWKVDNALQSGNSQESVTEQDSKDSTYSLSSTLTLSKADYEKHKVYACEVTHQGLSSPVTKSFNRGEC",Kd,canine LEPR-ECD-His,130 nM
same,Retention Time,[1],80.1 min
same,Kd,human LEPR-ECD-His,20 nM
same,Peak Width,[2],2.7 min
same,EC50,[3],0.74 nM
"Antibody B (antibody, human IgG1, kappa, L234A L235A, V domains shown) VH: EVQLLESGGGLVQPGGSLRLSCAASGFTFSSFAMSWVRQAPGKGLEWVSAISGSGGSTYSADSVRGRFTISRDNSKNTLYLQMNSLRAEDTAVYYCAKDQGDWDFLFDYWGQGTLVTVSS VL: DIQMTQSPSFLSASVGDRVTITCRVSQGISSSLAWYQQKPGKAPKLLIYTASTLQSGVPSRFSGSGSGTEFTLTISSLQPEDFATYYCQQLNYYPFTFGQGTKVEIKR",EC50,[4],1.11 nM
"Antibody C (antibody, human IgG1, kappa, L234A L235A, V domains shown) VH: EVQLLESGGGLVQPGGSLRLSCAASGFTFSSFAMSWVRQAPGKGLEWVSAISGSGGSTYSADSVRGRFTISRDNSKNTLYLQMNSLRAEDTAVYYCAKDQGDWDFLFDYWGQGTLVTVSS VL: DIQMTQSPSFLSASVGDRVTITCRASQGISSSLAWYQQKPGKAPKLLIYTASTLQSGVPSRFSGSGSGTEFTLTISSLQPEDFATYYCQQLNYYPFSFGQGTKVEIKR",EC50,[5],0.83 nM
